Source: patent US20110178027A1

The substances below were run against PC4 (UniProt Q6UW60) (assay: enzyme inhibition).
Sequence of PC4 (Q6UW60 114-708): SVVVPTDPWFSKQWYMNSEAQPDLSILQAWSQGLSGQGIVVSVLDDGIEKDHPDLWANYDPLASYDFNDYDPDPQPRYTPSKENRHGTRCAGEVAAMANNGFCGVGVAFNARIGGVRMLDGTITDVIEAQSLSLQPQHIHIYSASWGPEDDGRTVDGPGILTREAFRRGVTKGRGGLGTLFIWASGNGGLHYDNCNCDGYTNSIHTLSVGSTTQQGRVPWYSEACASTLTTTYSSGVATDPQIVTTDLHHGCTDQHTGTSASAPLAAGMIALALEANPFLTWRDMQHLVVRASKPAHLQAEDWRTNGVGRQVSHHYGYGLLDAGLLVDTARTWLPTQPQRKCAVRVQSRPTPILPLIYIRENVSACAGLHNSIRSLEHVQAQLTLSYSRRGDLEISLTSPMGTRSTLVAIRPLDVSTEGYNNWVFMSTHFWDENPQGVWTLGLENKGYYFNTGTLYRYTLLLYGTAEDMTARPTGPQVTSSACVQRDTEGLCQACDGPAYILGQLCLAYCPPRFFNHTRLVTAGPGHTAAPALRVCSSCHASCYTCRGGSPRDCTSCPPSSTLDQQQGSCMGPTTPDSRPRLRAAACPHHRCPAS

| Ki [µM] | Substance |
| --- | --- |
| 20.8 | RVKR-NH2 |
| 0.63 | LRVKR-NH2 |
| 0.73 | LLLRVKR-NH2 |
| 0.33 | LLRVKR-NH2 |
